Patent US8034904B2, “Anti-IGF-I receptor antibody” (Immunogen Inc., priority 2002, dated 2011)

Tests used:
SK-LU-1 cells = assay: Growth and survival of SK-LU-1 cells (MTT assay); format: cell-based, human
Protocol: (§1) Several human tumor cell lines were tested in serum-free conditions for their growth and survival response to IGF-I. These cell lines were treated with EM164 antibody in the presence of IGF-I, IGF-II, or serum, and their growth and survival responses were measured using an MTT assay after 2-4 days. Approximately 1500 cells were plated in a 96-well plate in regular medium with serum, which was replaced with serum-free medium the following day (either serum-free RPMI medium supplemented with transferrin and BSA, or phenol-red free medium as specified by Dufourny, B. et al., 1997, J. Biol. Chem., 272, 31163-31171). After one day of growth in serum-free medium, the cells were incubated with about 75 μL of 10 μg/mL antibody for 30 min.-3 h, followed by the addition of 25 μL of IGF-I (or IGF-II or serum) solution to obtain a final concentration of 10 ng/mL IGF-I, or 20 ng/mL IGF-II, or 0.04-10% serum. In some experiments, the cells were stimulated first with IGF-I for 15 min before the addition of EM164 antibody, or both IGF-I and EM164 antibody were added together. The cells were then allowed to grow for another 2-3 days. A solution of MTT (3-(4,5)-dimethylthiazol-2-yl)-2,5-diphenyltetrazolium bromide; 25 μL of a 5 mg/mL solution in PBS) was then added and the cells were returned to the incubator for 2-3 h. The medium was then removed and replaced by 100 μL DMSO, mixed, and the absorbance of the plate was measured at 545 nm.

[1] = system: IGF-I receptor of goat fibroblast cells; assay: Immunoprecipitation of IGF-I receptor from goat fibroblast cells; format: binding
Description: (§2) A Western blot of the EM164 antibody immunoprecipitate was detected using a rabbit polyclonal anti-IGF-I receptor beta chain (C-terminus) antibody (Santa Cruz Biotechnology) and a goat-anti-rabbit-IgG-antibody-horseradish peroxidase conjugate, followed by washes and enhanced chemiluminescence (ECL) detection.

[2] = system: IGF-I receptor of CHO cells; assay: Immunoprecipitation of IGF-I receptor from CHO cells; format: binding; conditions: CHO cells (Chinese hamster)
Description: as §2

IGF-I receptor [3] = molecular target: T1, IGF-I receptor (Homo sapiens, UniProt P08069); assay: Downregulation of IGF-I receptor in MCF-7 cells (Western blot); format: cell-based
T1 construct: human breast cancer MCF-7 cells, which expressed IGF-I receptor; endogenous in cells; host or cells: MCF-7 human breast cancer cells
Protocol: Therefore, the inhibition of binding of IGF-I and the displacement of bound IGF-I by EM164 antibody at both 4° C. and 37° C. in these short-term experiments may not be explained by the down-regulation of the receptor due to the binding of the EM164 antibody. The mechanism for the potent inhibition of the binding of IGF-I to IGF-I receptor and for the displacement of the pre-bound IGF-I by EM164 antibody is likely to be competition for binding, either through sharing of the binding site or through steric occlusion or through allosteric effects.

[4] = system: SK-N-SH (neuroblastoma) cells; assay: Growth and survival of SK-N-SH cells (MTT assay); format: cell-based, human
Protocol: as §1

IGF-I receptor [5] = molecular target: T1, IGF-I receptor; assay: IGF-I-stimulated autophosphorylation of IGF-I receptor in MCF-7 cells (ELISA); format: cell-based; conditions: 20 μg/mL antibody 3 h; 50 ng/mL IGF-I 20 min
Protocol: In FIG. 4, the MCF-7 cells were grown in a 12-well plate in regular medium for 3 days, and were then treated with 20 μg/mL EM164 antibody (or anti-B4 control antibody) in serum-free medium for 3 h, followed by stimulation with 50 ng/mL IGF-I for 20 min at 37° C. The cells were then lysed in ice-cold lysis buffer containing protease and phosphatase inhibitors (50 mM HEPES buffer, pH 7.4, 1% NP-40, 1 mM sodium orthovanadate, 100 mM sodium fluoride, 10 mM sodium pyrophosphate, 2.5 mM EDTA, 10 μM leupeptin, 5 μM pepstatin, 1 mM PMSF, 5 mM benzamidine, and 5 μg/mL aprotinin). An ELISA plate was pre-coated with anti-IGF-I receptor beta chain C-terminus monoclonal antibody TC123 and was incubated with the lysate samples for 5 h at ambient temperature to capture IGF-I receptor. The wells containing the captured IGF-I receptor were then washed and incubated with biotinylated anti-phosphotyrosine antibody (PY20; 0.25 μg/mL; BD Transduction Laboratories) for 30 min, followed by washes and incubation with streptavidin-horseradish peroxidase conjugate (0.8 μg/mL) for 30 min. The wells were washed and detected with ABTS/H2O2 substrate.

[6] = molecular target: biotinylated human IGF-I receptor; assay: ELISA binding titration (Kd) with biotinylated IGF-I receptor
Protocol: The wells were next washed with TBS-T buffer and incubated with goat-anti-mouse-IgGH+L-antibody-horseradish peroxidase conjugate (100 μL; 0.5 μg/mL in blocking buffer), followed by washes and detection using ABTS/H2O2 substrate at 405 nm. The value of Kd was estimated by non-linear regression for one-site binding.
A similar binding titration was carried out using the Fab fragment of EM164 antibody, prepared by papain digestion of the antibody as described by E. Harlow and D. Lane (“Using Antibodies: A Laboratory Manual”; 1999, Cold Spring Harbor Laboratory Press, New York).

[7] = system: SaOS-2 (osteosarcoma) cells; assay: Growth and survival of SaOS-2 cells (MTT assay); format: cell-based, human
Protocol: as §1

SK-Mel-37 cells = assay: Growth and survival of SK-Mel-37 cells (MTT assay); format: cell-based, human; conditions: 5-10 μg/mL EM164, 10 ng/mL IGF-I
Protocol: as §1, with “A solution of MTT (3-(4,5)-dimethylthiazol-2-yl)-2,5-diphenyltetrazolium bromide; 25 μL of a 5 mg/mL solution in PBS) was then added and the cells were returned to the incubator for 2-3 h.” left out

MCF-7 (breast) cells = assay: Growth and survival of MCF-7 cells (MTT assay); format: cell-based, human
Protocol: as §1

[8] = molecular target: T2, IGF-I receptor on MCF-7 cells (Homo sapiens, UniProt P08069); assay: FACS binding to human breast cancer MCF-7 cells
T2 construct: human breast cancer MCF-7 cells, which expressed IGF-I receptor; endogenous in cells; host or cells: MCF-7 human breast cancer cells
Protocol: The cells were pelleted by centrifugation and washed with cold FACS buffer by gentle flicking, followed by incubation with goat-anti-mouse-IgG-antibody-FITC conjugate (100 μL; 10 μg/mL in FACS buffer) on ice for 1 h. The cells were pelleted, washed, and resuspended in 120 μL of 1% formaldehyde solution in PBS. The plate was analyzed using a FACSCalibur reader (BD Biosciences).

NCI-H596 cells = assay: Growth and survival of NCI-H596 cells (MTT assay); format: cell-based, human
Protocol: as §1

Akt and Erk1/2 = assay: IGF-I receptor signaling in SaOS-2 cells (Western blots, phospho-Akt and phospho-Erk1/2); format: cell-based, human
[9] = 5-10 μg/mL EM164, 10 ng/mL IGF-I
[10] = 5-10 μg/mL EM164, MTT or colony formation assay

B1: EM164: murine anti-IGF-I receptor monoclonal antibody, IgG1 with kappa light chain, hybridoma ATCC PTA-4457; heavy SEQ ID NO:7, light SEQ ID NO:8 (antibody)
heavy: QVQLQQSGAELVKPGASVKLSCKASGYTFTSYWMHWVKQRPGQGLEWIGEINPSNGRTNYNEKFKRKATLTVDKSSSTAYMQLSSLTSEDSAVYYFARGRPDYYGSSKWYFDVWGAGTTVTVSS
light: DVLMTQTPLSLPVSLGDQASISCRSSQSIVHSNVNTYLEWYLQKPGQSPKLLIYKVSNRFSGVPDRFSGSGSGTDFTLRISRVEAEDLGIYYCFQGSHVPPTFGGGTKLEIKR
modifications: antibody heavy chain; antibody light chain
- Inhibition by EM164 antibody of IGF-I-stimulated growth in serum-free medium (SK-LU-1 cells; [9]): 100%
- % Inhibition by EM164 antibody of Growth/survival of cells in 1.25-10% serum (SK-LU-1 cells; [10]): No
- binding to IGF-I receptor (immunoprecipitation) [1]: did not bind
- binding to IGF-I receptor (immunoprecipitation) [2]: did not bind
- downregulation of the IGF-I receptor (IGF-I receptor [3]; 4° C. for 2 h (or 37° C. for 30 min)): did not result in a significant downregulation
- downregulation of the IGF-I receptor (IGF-I receptor [3]; 37° C. for 2 h): 25%
- % Inhibition by EM164 antibody of Growth/survival of cells in 1.25-10% serum ([4]; 5-10 μg/mL EM164): 30-50%
- Inhibition by EM164 antibody of IGF-I-stimulated growth in serum-free medium [4, 9]: 85%
- inhibition of the IGF-I stimulated autophosphorylation of IGF-I receptor (IGF-I receptor [5]): complete inhibition
- Kd ([6]; ELISA titration, non-linear regression for one-site binding, read-out: dissociation constant (Kd)): 0.1 nM
- koff rate ([6]; strong binding signals after prolonged 1-2 day washes): very slow
- Inhibition by EM164 antibody of IGF-I-stimulated growth in serum-free medium [7, 9]: 100%
- % Inhibition by EM164 antibody of Growth/survival of cells in 1.25-10% serum [7, 10]: Yes
- Inhibition by EM164 antibody of IGF-I-stimulated growth in serum-free medium (SK-Mel-37 cells): 85%
- inhibition of growth and survival of MCF-7 cells over a range of serum concentrations (MCF-7 (breast) cells; 0.04-10% serum, FIG. 8): equally effective
- IGF-1- or serum-stimulated growth and survival of MCF-7 cells (MCF-7 (breast) cells; FIGS. 7 and 8): strongly inhibited
- % Inhibition by EM164 antibody of Growth/survival of cells in 1.25-10% serum (MCF-7 (breast) cells; MCF-7 (breast), 5-10 μg/mL EM164): 85%
- Inhibition by EM164 antibody of IGF-I-stimulated growth in serum-free medium (MCF-7 (breast) cells; MCF-7 (breast), 5-10 μg/mL EM164, 10 ng/mL IGF-I): 100%
- inhibition of serum-stimulated growth (MCF-7 (breast) cells; MCF-7 cells, in the presence of serum): greater than 80%
- IGF-II-stimulated growth and survival of MCF-7 cells (MCF-7 (breast) cells; separate experiment): strongly inhibited
- fluorescence shift (FACS) [8]: strong fluorescence shift
- Inhibition by EM164 antibody of IGF-I-stimulated growth in serum-free medium (NCI-H596 cells; [9]): 100%
- % Inhibition by EM164 antibody of Growth/survival of cells in 1.25-10% serum (NCI-H596 cells; [10]): Weakly
- EGF-stimulated phosphorylation of Erk1/2 (Akt and Erk1/2): did not inhibit
- intracellular IGF-I receptor signaling (Akt and Erk1/2): almost completely inhibited
- activation of Akt and Erk1/2 (Akt and Erk1/2; IGF-I stimulated): inhibited in a dose-dependent manner
